Results reported in paper PMC7897482, “Ecd promotes U5 snRNP maturation and Prp8 stability” (Nucleic Acids Research, 2021).

Molecular target: T1, His::Ecd (Drosophila melanogaster, UniProt Q9W032 1-684)
T1 construct: Ecdysoneless (Ecd), Drosophila melanogaster; cDNA cloned into pET28b; also called His-tagged Ecd; source: E. coli BL21 Rosetta (DE3), purified (Ni Sepharose)
T1 sequence (looked up): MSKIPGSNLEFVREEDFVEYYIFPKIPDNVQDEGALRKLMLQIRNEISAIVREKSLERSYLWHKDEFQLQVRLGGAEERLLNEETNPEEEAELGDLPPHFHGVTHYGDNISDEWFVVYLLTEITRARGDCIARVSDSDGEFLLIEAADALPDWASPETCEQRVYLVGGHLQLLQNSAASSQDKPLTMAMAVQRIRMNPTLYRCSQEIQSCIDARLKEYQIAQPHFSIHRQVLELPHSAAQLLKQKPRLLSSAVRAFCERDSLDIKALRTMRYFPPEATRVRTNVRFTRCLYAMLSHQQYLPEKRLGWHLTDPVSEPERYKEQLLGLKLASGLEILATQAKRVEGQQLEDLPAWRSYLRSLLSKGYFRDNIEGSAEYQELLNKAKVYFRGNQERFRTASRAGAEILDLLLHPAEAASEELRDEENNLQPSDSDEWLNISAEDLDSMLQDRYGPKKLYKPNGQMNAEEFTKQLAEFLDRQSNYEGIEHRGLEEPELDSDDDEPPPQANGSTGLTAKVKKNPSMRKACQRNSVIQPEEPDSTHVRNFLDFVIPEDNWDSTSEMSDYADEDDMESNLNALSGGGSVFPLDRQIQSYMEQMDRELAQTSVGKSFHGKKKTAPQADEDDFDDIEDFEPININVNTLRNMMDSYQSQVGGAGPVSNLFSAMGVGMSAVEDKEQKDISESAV
Assay: pull-down; 10 μg of purified His::Ecd and His::SmD3::HA incubated alone or together overnight at 4°C with protein G Dynabeads coupled to rat anti-Ecd N-term antibody; western blot
Details: both partners purified

B1: His::SmD3::HA (natural protein, Drosophila melanogaster, UniProt O44437 1-151, looked up)
chain: MSIGVPIKVLHEAEGHIITCETITGEVYRGKLIEAEDNMNCQMTQITVTYRDGRTANLENVYIRGSKIRFLILPDMLKNAPMFKKQTGKGLGGTAGRGKAAILRAQARGRGRGGPPGGGRGTGGPPGAPGGSGGRGAWQGGPTGGRGRGGL
notes: Sm ring protein SmD3, Drosophila melanogaster; cDNA cloned into Gateway pDEST17; also called His-tagged SmD3; source: E. coli BL21 Rosetta (DE3), purified (Ni Sepharose)
B1: binds.
